Biological target: the molecule itself
Assay: cryo-EM structure

B1: OmpF, β-barrel channel protein from the outer membrane of E. coli (natural protein, UniProt P02931 23-362, looked up)
chain: AEIYNKDGNKVDLYGKAVGLHYFSKGNGENSYGGNGDMTYARLGFKGETQINSDLTGYGQWEYNFQGNNSEGADAQTGNKTRLAFAGLKYADVGSFDYGRNYGVVYDALGYTDMLPEFGGDTAYSDDFFVGRVGGVATYRNSNFFGLVDGLNFAVQYLGKNERDTARRSNGDGVGGSISYEYEGFGIVGAYGAADRTNLQEAQPLGNGKKAEQWATGLKYDANNIYLAANYGETRNATPITNKFTNTSGFANKTQDVLLVAQYQFDFGLRPSIAYTKSKAKDVEGIGDVDLVNYFEVGATYYFNKNMSTYVDYIINQIDSDNKLGVGSDDTVAVGIVYQF
Q: B1 was tested. Which “stoichiometry N” value did it give?
A: Its value is 3.

— paper PMC4944209 (Journal of structural biology, 2016)
